Biological target: T1, Wild-type prothrombin (human, UniProt P00734 44-622)
T1 construct: prothrombin, human
Assay: SPR; Biacore T200; FVa amine-coupled on a CM5 chip (8000-9000 RU); prothrombin 0-10,000 nM injected for 60 s at 30 uL/min; HBS (0.02 M HEPES, 0.15 M NaCl, pH 7.4) with 5 mM CaCl2 and 0.01% Tween-80; kinetic 1:1 Langmuir model
Details: both partners purified

Kd: 1000 nM
B1: Factor Va (complex)
heavy: AQLRQFYVAAQGISWSYRPEPTNSSLNLSVTSFKKIVYREYEPYFKKEKPQSTISGLLGPTLYAEVGDIIKVHFKNKADKPLSIHPQGIRYSKLSEGASYLDHTFPAEKMDDAVAPGREYTYEWSISEDSGPTHDDPPCLTHIYYSHENLIEDFNSGLIGPLLICKKGTLTEGGTQKTFDKQIVLLFAVFDESKSWSQSSSLMYTVNGYVNGTMPDITVCAHDHISWHLLGMSSGPELFSIHFNGQVLEQNHHKVSAITLVSATSTTANMTVGPEGKWIISSLTPKHLQAGMQAYIDIKNCPKKTRNLKKITREQRRHMKRWEYFIAAEEVIWDYAPVIPANMDKKYRSQHLDNFSNQIGKHYKKVMYTQYEDESFTKHTVNPNMKEDGILGPIIRAQVRDTLKIVFKNMASRPYSIYPHGVTFSPYEDEVNSSFTSGRNNTMIRAVQPGETYTYKWNILEFDEPTENDAQCLTRPYYSDVDIMRDIASGLIGLLLICKSRSLDRRGIQRAADIEQQAVFAVFDENKSWYLEDNINKFCENPDEVKRDDPKFYESNIMSTINGYVPESITTLGFCFDDTVQWHFCSVGTQNEILTIHFTGHSFIYGKRHEDTLTLFPMRGESVTVTMDNVGTWMLTSMNSSPRSKKLRLKFRDVKCIPDDDEDSYEIFEPPESTVMATRKMHDRLEPEDEESDADYDYQNRLAAALGIR
light: SNNGNRRNYYIAAEEISWDYSEFVQRETDIEDSDDIPEDTTYKKVVFRKYLDSTFTKRDPRGEYEEHLGILGPIIRAEVDDVIQVRFKNLASRPYSLHAHGLSYEKSSEGKTYEDDSPEWFKEDNAVQPNSSYTYVWHATERSGPESPGSACRAWAYYSAVNPEKDIHSGLIGPLLICQKGILHKDSNMPMDMREFVLLFMTFDEKKSWYYEKKSRSSWRLTSSEMKKSHEFHAINGMIYSLPGLKMYEQEWVRLHLLNIGGSQDIHVVHFHGQTLLENGNKQHQLGVWPLLPGSFKTLEMKASKPGWWLLNTEVGENQRAGMQTPFLIMDRDCRMPMGLSTGIISDSQIKASEFLGYWEPRLARLNNGGSYNAWSVEKLAAEFASKPWIQVDMQKEVIITGIQTQGAKHYLKSCYTTEFYVAYSSNQINWQIFKGNSTRNVMYFNGNSDASTIKENQFDPPIVARYIRISPTRAYNRPTLRLELQGCEVNGCSTPLGMENGKIENKQITASSFKKSWWGDYWEPFRARLNAQGRVNAWQAKANNNKQWLEIDLLKIKKITAIITQGCKSLSSEMYVKSYTIHYSEQGVEWKPYRLKSSMVDKIFEGNTNTKGHVKNFFNPPIISRFIRVIPKTWNQSIALRLELFGCDIY
notes: heavy chain of factor Va; light chain of factor Va; Bovine FVa is named only for the preparation of the heavy chain for NMR; the source of the FVa of the other experiments is in the Supplementary Materials; also called FVa
